Drawing on article PMC10681739, “High-throughput data and modeling reveal insights into the mechanisms of cooperative DNA-binding by transcription factor proteins”, this text covers binding signal for 30 molecules.

In one series the target is RUNX1 (Homo sapiens, UniProt Q01196). Description: gcPBM; 2 nM RUNX1. The following applies: tags: N-terminal GST (pDEST15), kept (PMC6008103); label: surface-attached array probe.
For another series, the target named is ETS1:RUNX1 (Homo sapiens, UniProt P14921;Q01196 full;full). In words: gcPBM; 1 nM ETS1 + 25 nM RUNX1, anti-ETS1 signal, normalised. The following applies: tags: N-terminal GST (pDEST15), kept (PMC6008103); copies: 1;1; label: surface-attached array probe.
ETS1:RUNX1, sequence (P14921 whole entry, chain 1 of 2): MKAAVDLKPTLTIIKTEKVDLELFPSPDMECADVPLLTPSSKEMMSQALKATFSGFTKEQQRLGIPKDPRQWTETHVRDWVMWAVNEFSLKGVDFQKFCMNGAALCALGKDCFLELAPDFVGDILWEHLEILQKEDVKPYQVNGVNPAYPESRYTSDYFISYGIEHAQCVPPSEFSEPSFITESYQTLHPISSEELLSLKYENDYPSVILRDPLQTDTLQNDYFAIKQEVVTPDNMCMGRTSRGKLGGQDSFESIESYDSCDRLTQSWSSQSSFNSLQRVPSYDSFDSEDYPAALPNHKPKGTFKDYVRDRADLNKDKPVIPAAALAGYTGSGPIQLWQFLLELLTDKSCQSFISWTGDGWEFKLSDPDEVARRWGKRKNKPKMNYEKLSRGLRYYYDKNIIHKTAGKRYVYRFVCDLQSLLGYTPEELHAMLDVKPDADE
ETS1:RUNX1, sequence (Q01196 whole entry, chain 2 of 2): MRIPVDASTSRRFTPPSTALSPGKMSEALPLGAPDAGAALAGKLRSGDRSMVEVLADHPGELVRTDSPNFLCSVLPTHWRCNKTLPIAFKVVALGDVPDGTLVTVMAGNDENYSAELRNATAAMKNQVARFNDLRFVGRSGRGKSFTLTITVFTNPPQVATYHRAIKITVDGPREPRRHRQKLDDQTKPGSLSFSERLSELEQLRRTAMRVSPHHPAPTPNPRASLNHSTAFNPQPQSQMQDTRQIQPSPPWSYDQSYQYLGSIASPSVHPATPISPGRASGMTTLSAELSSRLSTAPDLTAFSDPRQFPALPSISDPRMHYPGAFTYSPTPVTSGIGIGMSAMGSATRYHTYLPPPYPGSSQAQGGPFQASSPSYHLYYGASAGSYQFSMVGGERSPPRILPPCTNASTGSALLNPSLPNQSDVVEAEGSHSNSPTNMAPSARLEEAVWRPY

RUNX1, sequence (Q01196 whole entry): as the sequence (Q01196 whole entry, chain 2 of 2) above

B1: Table S3 C row 158 (dsDNA)
DNA 1: ACAAAAAAACCCTACCTTCCGCCATGTCTGGCCCGG
DNA 2: CCGGGCCAGACATGGCGGAAGGTAGGGTTTTTTTGT
Turning to B1, the binding signal with RUNX1 was 847 PBM fluorescence, median of replicate spots.

B2: Table S3 C row 199 (dsDNA)
DNA 1: TATCTGAGGAGTGGCAGGAAGTCTGGGGTGACTTTT
DNA 2: AAAAGTCACCCCAGACTTCCTGCCACTCCTCAGATA
On to B2, for which, in the series with RUNX1, the binding signal is 815 PBM fluorescence, median of replicate spots.

B3: Table S3 C row 141 (dsDNA)
DNA 1: CTCCAACCCTTGTCCCTTCCGCCTGCCACTGCAGGT
DNA 2: ACCTGCAGTGGCAGGCGGAAGGGACAAGGGTTGGAG
Consider B3, for which the binding signal in the series with RUNX1 was 850 PBM fluorescence, median of replicate spots.

B4: Table S2 A row 1460 (dsDNA)
DNA 1: TAGCCACTAACCGGAAACGTTAAACCACAGCTCCGT
DNA 2: ACGGAGCTGTGGTTTAACGTTTCCGGTTAGTGGCTA
In the case of B4, the binding signal with ETS1:RUNX1 was 56100 PBM fluorescence, median of replicate spots.

B5: Table S2 A row 706 (dsDNA)
DNA 1: TAGCCACGAACCGGAAACGTTAAACCACAGCTCCGT
DNA 2: ACGGAGCTGTGGTTTAACGTTTCCGGTTCGTGGCTA
With B5, in the series with ETS1:RUNX1, the binding signal was 46400 PBM fluorescence, median of replicate spots.

B6: Table S3 C row 182 (dsDNA)
DNA 1: TCTGCAGAGGGTTCCCGGATACACCTTGCGAAGAAT
DNA 2: ATTCTTCGCAAGGTGTATCCGGGAACCCTCTGCAGA
B6: in the series with RUNX1, the binding signal was 844 PBM fluorescence, median of replicate spots.

B7: Table S3 C row 60 (dsDNA)
DNA 1: GGGGCTACTCGCAACAGGAAGTTCGGCCCTTAAAAA
DNA 2: TTTTTAAGGGCCGAACTTCCTGTTGCGAGTAGCCCC
Consider B7, for which the binding signal with RUNX1 was 839 PBM fluorescence, median of replicate spots.

B8: Table S3 C row 16 (dsDNA)
DNA 1: GCTAGATGAAGCCCCTTTCCTGTTGCTGCCTACATT
DNA 2: AATGTAGGCAGCAACAGGAAAGGGGCTTCATCTAGC
Regarding B8, the binding signal in the series with RUNX1 is 818 PBM fluorescence, median of replicate spots.

B9: Table S3 C row 88 (dsDNA)
DNA 1: TCTCACGTAGACGCGCGGAAACACTAACGAGTTGAA
DNA 2: TTCAACTCGTTAGTGTTTCCGCGCGTCTACGTGAGA
Regarding B9, the binding signal in the series with RUNX1 was 840 PBM fluorescence, median of replicate spots.

B10: Table S3 C row 115 (dsDNA)
DNA 1: GCCACCAGAGGGCGCCGGAAGTCCTGACCCATTGTC
DNA 2: GACAATGGGTCAGGACTTCCGGCGCCCTCTGGTGGC
Turning to B10, the binding signal with RUNX1 is 838 PBM fluorescence, median of replicate spots.

B11: Table S3 C row 183 (dsDNA)
DNA 1: CGCCCCAATGTTCGGCGGAAGGGAGGGAGGGTCTCC
DNA 2: GGAGACCCTCCCTCCCTTCCGCCGAACATTGGGGCG
Turning to B11, the binding signal with RUNX1 is 835 PBM fluorescence, median of replicate spots.

B12: Table S2 A row 1184 (dsDNA)
DNA 1: GAAGCTCCCCAAACAGGATGTGGTTAGGGAGAGGGG
DNA 2: CCCCTCTCCCTAACCACATCCTGTTTGGGGAGCTTC
As to B12, the binding signal in the series with ETS1:RUNX1 was 58300 PBM fluorescence, median of replicate spots.

B13: Table S3 C row 175 (dsDNA)
DNA 1: CTGCGCGGCCCACCCCGGATGTCAGCCCCACGCGCC
DNA 2: GGCGCGTGGGGCTGACATCCGGGGTGGGCCGCGCAG
As to B13, the binding signal with RUNX1 is 823 PBM fluorescence, median of replicate spots.

B14: Table S3 C row 125 (dsDNA)
DNA 1: TTCCATTCGATGATGCTTCCGTATGAATCCATTCAC
DNA 2: GTGAATGGATTCATACGGAAGCATCATCGAATGGAA
B14: the binding signal with RUNX1 was 844 PBM fluorescence, median of replicate spots.

B15: Table S3 C row 177 (dsDNA)
DNA 1: TCTCCTACTCCTGCGCGGATGCTCTAGGCCGCTTGC
DNA 2: GCAAGCGGCCTAGAGCATCCGCGCAGGAGTAGGAGA
On to B15, for which the binding signal in the series with RUNX1 is 846 PBM fluorescence, median of replicate spots.

B16: Table S3 C row 7 (dsDNA)
DNA 1: ACCCCGACGCAGCCTGGGAAGTGTAGTCCTCTCTGC
DNA 2: GCAGAGAGGACTACACTTCCCAGGCTGCGTCGGGGT
Consider B16, for which the binding signal with RUNX1 was 822 PBM fluorescence, median of replicate spots.

B17: Table S3 C row 149 (dsDNA)
DNA 1: CTCAAGGAGGTGGGACTTCCTGCTAGGTGGGCCGTG
DNA 2: CACGGCCCACCTAGCAGGAAGTCCCACCTCCTTGAG
As to B17, the binding signal with RUNX1 was 829 PBM fluorescence, median of replicate spots.

B18: Table S3 C row 64 (dsDNA)
DNA 1: CTCCATCACTGTCGGAGGAAGTGGCATGCAGAGTGG
DNA 2: CCACTCTGCATGCCACTTCCTCCGACAGTGATGGAG
For the molecule B18, in the series with RUNX1, the binding signal was 818 PBM fluorescence, median of replicate spots.

B19: Table S2 A row 1759 (dsDNA)
DNA 1: CCTGTTGATAAAACAGGATGTGGTAAAGAAGCTGGC
DNA 2: GCCAGCTTCTTTACCACATCCTGTTTTATCAACAGG
Turning to B19, the binding signal with ETS1:RUNX1 is 43300 PBM fluorescence, median of replicate spots.

B20: Table S3 C row 68 (dsDNA)
DNA 1: CCCTATTCGCAGAGGAGGAAGTGGAGGCTCTCCAGG
DNA 2: CCTGGAGAGCCTCCACTTCCTCCTCTGCGAATAGGG
For B20, the binding signal in the series with RUNX1 is 829 PBM fluorescence, median of replicate spots.

B21: Table S3 C row 136 (dsDNA)
DNA 1: GAACTCAGTACAGGCCGGAAGTCGGGGTACGGGGCC
DNA 2: GGCCCCGTACCCCGACTTCCGGCCTGTACTGAGTTC
Turning to B21, the binding signal in the series with RUNX1 is 841 PBM fluorescence, median of replicate spots.

B22: Table S2 A row 1371 (dsDNA)
DNA 1: GAACCTGGGAGGCGGAAGTTGCGGTTAGCCGAGATC
DNA 2: GATCTCGGCTAACCGCAACTTCCGCCTCCCAGGTTC
B22: the binding signal in the series with ETS1:RUNX1 is 64700 PBM fluorescence, median of replicate spots.

B23: Table S3 C row 30 (dsDNA)
DNA 1: ACCGACCTGCCTCGCCGGAACTCCTCGCGCATCGCC
DNA 2: GGCGATGCGCGAGGAGTTCCGGCGAGGCAGGTCGGT
In the case of B23, the binding signal with RUNX1 was 816 PBM fluorescence, median of replicate spots.

B24: Table S2 A row 1295 (dsDNA)
DNA 1: GCTCTGGGTCACACAGGATGTGGTTTTTGAAGTTTG
DNA 2: CAAACTTCAAAAACCACATCCTGTGTGACCCAGAGC
Turning to B24, the binding signal with ETS1:RUNX1 was 49000 PBM fluorescence, median of replicate spots.

B25: Table S3 C row 37 (dsDNA)
DNA 1: ACCCTCTGTTTTGAGCTTCCGGTAGAGGCTGGTAGG
DNA 2: CCTACCAGCCTCTACCGGAAGCTCAAAACAGAGGGT
With B25, in the series with RUNX1, the binding signal was 852 PBM fluorescence, median of replicate spots.

B26: Table S3 C row 189 (dsDNA)
DNA 1: TCGCTGATGGCGTCATTTCCGTGAGTCATCTGAGGG
DNA 2: CCCTCAGATGACTCACGGAAATGACGCCATCAGCGA
On to B26, for which the binding signal with RUNX1 was 823 PBM fluorescence, median of replicate spots.

B27: Table S3 C row 73 (dsDNA)
DNA 1: CCCAGATCACATGACAGGAAGGCAAAGTCCTCAGGT
DNA 2: ACCTGAGGACTTTGCCTTCCTGTCATGTGATCTGGG
Regarding B27, in the series with RUNX1, the binding signal was 850 PBM fluorescence, median of replicate spots.

B28: Table S3 C row 186 (dsDNA)
DNA 1: GCTTTCTGGACTACACTTCCCAGAAGCCTCTAGGCC
DNA 2: GGCCTAGAGGCTTCTGGGAAGTGTAGTCCAGAAAGC
On to B28, for which the binding signal in the series with RUNX1 was 826 PBM fluorescence, median of replicate spots.

B29: Table S3 C row 142 (dsDNA)
DNA 1: GCCCCTGCCCCAGAGAGGAAGTTCGGCCTCATCGAG
DNA 2: CTCGATGAGGCCGAACTTCCTCTCTGGGGCAGGGGC
For B29, the binding signal with RUNX1 was 827 PBM fluorescence, median of replicate spots.

B30: Table S3 C row 42 (dsDNA)
DNA 1: CTTTGGCAGCAAGAACATCCGTTCTCTGTTCTTTGC
DNA 2: GCAAAGAACAGAGAACGGATGTTCTTGCTGCCAAAG
Turning to B30, in the series with RUNX1, the binding signal was 821 PBM fluorescence, median of replicate spots.
